Test results reported in the supplement of paper PMC7877785.
± gives the uncertainty stated by the source.

Assay: self-splicing fitness, log relative to wild type (ln ratio); higher = more splicing; Tetrahymena group I intron in knt gene, E. coli kanamycin selection, DiMSum; sequences stand for … in CUCUCU…GGAGGGAAAAGUUAUCAGGCAUGCACCUGGUAGCUAGUCUUUAAACCAAUAGAUUGCAUCGGUUUAAAAGGCAAGACCGUCAAAUUGCGGGAAAGGGGUCAACAGCCGUUCAGUACCAAGUCUCAGGGGAAACUUUGAGAUGGCCUUGCAAAGGGUAUGGUAAUAAGCUGACGGACAUGGUCCUAACCACGCAGCCAAGUCCUAAGUCAACAGAUCUUCUGUUGAUAUGGAUGCAGUUCACAGACUAAAUGUCGGUCGGGGAAGAUGUAUUCUUCUCAUAAGAUAUAGUCGGACCUCUCCUUAAUGGGAGCUAGCGGAUGAAGUGAUGCAACACUGGAGCCGCUGGGAACUAAUUUGUAUGCGAAAGUAUAUUGAUUAGUUUUGGAGUACUCGUGGUCG
How it was run: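 A randomised library covering all eight P1ex-region intron nucleotides was built with the intron in the knt kanamycin-resistance gene on pET-22b(+) and held in E. coli BL21(DE3). Cells were grown overnight at 37°C or 30°C on LB agar, with or without 25 μg/mL kanamycin, plus 100 μg/mL carbenicillin, 50 μM IPTG and 0.2% rhamnose, and pooled colonies were amplicon-sequenced on an Illumina HiSeq 2500. DiMSum fitness is the error-weighted combination of wild-type-normalised replicate fold changes, kanamycin versus none.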

| Sequence | self-splicing fitness (ln) (30 °C) | self-splicing fitness (ln) (37 °C) |
| --- | --- | --- |
| GAGUAGCAAUAUUACGGAGA | -2.29 ± 0.37 | -2.12 ± 0.29 |
| GAGUAGCAAUAUUACGGAUG | -1.42 ± 0.17 |  |
| GAGUAGCAAUAUUACGGUAA | -2.23 ± 0.18 | -1.25 ± 0.16 |
| GAGUAGCAAUAUUACGGUGU | -2.71 ± 0.11 | -2.35 ± 0.18 |
| GAGUAGCAAUAUUACGUCCA | -1.32 ± 0.14 | -0.346 ± 0.16 |
| GAGUAGCAAUAUUACGUCCU | 0.0223 ± 0.087 | 0.18 ± 0.15 |
| GAGUAGCAAUAUUACGUGAC | -1.42 ± 0.22 | -1.89 ± 0.39 |
| GAGUAGCAAUAUUACGUUCG | -2.12 ± 0.15 | -0.913 ± 0.15 |
| GAUAAGCAAUAUUACGACCG | -1.01 ± 0.18 | -0.581 ± 0.36 |
| GAUAAGCAAUAUUACGACUU | 0.544 ± 0.08 | 0.0887 ± 0.095 |
| GAUAAGCAAUAUUACGCAUU | -2.5 ± 0.32 | -2.26 ± 0.35 |
| GAUAAGCAAUAUUACGCCUG | -0.902 ± 0.09 | 0.488 ± 0.13 |
| GAUAAGCAAUAUUACGCGCC | -1.76 ± 0.17 | -1.31 ± 0.26 |
| GAUAAGCAAUAUUACGGAAA | -2.35 ± 0.41 | -1.67 ± 0.29 |
| GAUAAGCAAUAUUACGGAGG | -1.43 ± 0.13 | -2.92 ± 0.29 |
| GAUAAGCAAUAUUACGGCAG | -3.5 ± 0.32 | -2.51 ± 0.33 |
| GAUAAGCAAUAUUACGGGCC | -1.48 ± 0.17 | -1.13 ± 0.18 |
| GAUAAGCAAUAUUACGGGGG | -3.65 ± 0.26 | -3.04 ± 0.28 |
| GAUAAGCAAUAUUACGGGUU | -2.18 ± 0.12 | -2.26 ± 0.15 |
| GAUAAGCAAUAUUACGGUCA | -1.71 ± 0.12 | -0.711 ± 0.11 |
| GAUAAGCAAUAUUACGUACU | -0.466 ± 0.089 | -0.373 ± 0.12 |
| GAUAAGCAAUAUUACGUAGC | -2.22 ± 0.13 | -0.793 ± 0.12 |
| GAUAAGCAAUAUUACGUCUG | -2.51 ± 0.24 | -1.57 ± 0.25 |
| GAUAAGCAAUAUUACGUGGA | -3.96 ± 0.38 | -2.55 ± 0.17 |

| Sequence | self-splicing fitness (ln) (30 °C) | self-splicing fitness (ln) (37 °C) |
| --- | --- | --- |
| GAUCAGCAAUAUUACGACUA | -0.353 ± 0.4 | -0.914 ± 0.2 |
| GAUCAGCAAUAUUACGAUAG | -0.506 ± 0.067 | 0.475 ± 0.093 |
| GAUCAGCAAUAUUACGAUGA | -0.0415 ± 0.095 | 0.313 ± 0.12 |
| GAUCAGCAAUAUUACGAUUU | -0.286 ± 0.085 | 0.0945 ± 0.1 |
| GAUCAGCAAUAUUACGCAUA | -0.521 ± 0.082 | -0.0106 ± 0.084 |
| GAUCAGCAAUAUUACGCCGU | -0.933 ± 0.098 | -0.477 ± 0.12 |
| GAUCAGCAAUAUUACGCGAA | -1.49 ± 0.086 | -0.586 ± 0.09 |
| GAUCAGCAAUAUUACGCGUG | -0.471 ± 0.048 | 0.0677 ± 0.066 |
| GAUCAGCAAUAUUACGCGUU | -2.22 ± 0.1 | -1.21 ± 0.12 |
| GAUCAGCAAUAUUACGGACG | -0.737 ± 0.13 | -0.212 ± 0.18 |
| GAUCAGCAAUAUUACGGAUC | -2.99 ± 0.2 | -2.49 ± 0.36 |
| GAUCAGCAAUAUUACGGCGU | -0.292 ± 0.086 | 0.2 ± 0.1 |
| GAUCAGCAAUAUUACGGCUU | -0.164 ± 0.092 | -0.596 ± 0.1 |
| GAUCAGCAAUAUUACGGGCC | -0.0569 ± 0.16 | -0.311 ± 0.18 |
| GAUCAGCAAUAUUACGGGUG | -0.356 ± 0.081 | -0.245 ± 0.094 |
| GAUCAGCAAUAUUACGGUCU | -3.56 ± 0.21 | -1.9 ± 0.2 |
| GAUCAGCAAUAUUACGUAAG | -1.58 ± 0.097 | -1.13 ± 0.12 |
| GAUCAGCAAUAUUACGUCUC | -0.796 ± 0.1 | 0.0417 ± 0.13 |
| GAUCAGCAAUAUUACGUGAA | -0.745 ± 0.062 | -0.0764 ± 0.076 |
| GAUCAGCAAUAUUACGUGCG | -1.16 ± 0.086 | -0.336 ± 0.093 |
| GAUCAGCAAUAUUACGUGUG | -0.908 ± 0.044 | -0.101 ± 0.06 |
| GAUCAGCAAUAUUACGUGUU | -1.75 ± 0.06 | -1.48 ± 0.09 |
| GAUCAGCAAUAUUACGUUAC | -2.16 ± 0.097 | -1.19 ± 0.11 |
